From US20230235052A1 (GRACELL BIOTECHNOLOGIES SHANGHAI, published 2023)
Positions count from the first letter of the chain named. Values belong to the binder of their own block, whether it stands above or below them.

Experiments:
human CD19 antigen = target: T1, human CD19 antigen (human, UniProt P15391 20-291, limits assumed); assay: SPR (Biacore), antibody captured via Fc
T1 sequence (looked up): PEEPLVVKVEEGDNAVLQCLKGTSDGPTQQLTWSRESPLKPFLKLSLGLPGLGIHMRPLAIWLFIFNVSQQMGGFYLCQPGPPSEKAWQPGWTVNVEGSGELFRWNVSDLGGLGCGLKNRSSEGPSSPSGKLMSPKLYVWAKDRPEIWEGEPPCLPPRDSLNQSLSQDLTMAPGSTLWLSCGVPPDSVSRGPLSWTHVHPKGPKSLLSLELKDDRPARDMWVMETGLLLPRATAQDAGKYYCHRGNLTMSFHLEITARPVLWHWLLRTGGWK
Method: Part of the antibodies in Example 1 were tested for affinity, and the composition of the heavy chain variable regions and the light chain variable regions of the antibodies to be tested are shown in Table 2.
HEK293 cells were used to express the antibodies to be tested and Protein A was used for purification. The surface plasmon resonance technique (SPR) was used for determination, and the Fc capture method was used for antibody fixation.

[1] = target: T2, CD19 on CD19-positive target cells SU-DHL-10 and Raji (human, UniProt P15391 20-556); assay: flow cytometry on CD19-positive Raji cells, antibody titrated, fluorescent anti-Fc secondary antibody, percent positive cells (panel 'scFv binding to Raji')
T2 construct: whole, on cells; also called cell surface antigens
T2 sequence (looked up): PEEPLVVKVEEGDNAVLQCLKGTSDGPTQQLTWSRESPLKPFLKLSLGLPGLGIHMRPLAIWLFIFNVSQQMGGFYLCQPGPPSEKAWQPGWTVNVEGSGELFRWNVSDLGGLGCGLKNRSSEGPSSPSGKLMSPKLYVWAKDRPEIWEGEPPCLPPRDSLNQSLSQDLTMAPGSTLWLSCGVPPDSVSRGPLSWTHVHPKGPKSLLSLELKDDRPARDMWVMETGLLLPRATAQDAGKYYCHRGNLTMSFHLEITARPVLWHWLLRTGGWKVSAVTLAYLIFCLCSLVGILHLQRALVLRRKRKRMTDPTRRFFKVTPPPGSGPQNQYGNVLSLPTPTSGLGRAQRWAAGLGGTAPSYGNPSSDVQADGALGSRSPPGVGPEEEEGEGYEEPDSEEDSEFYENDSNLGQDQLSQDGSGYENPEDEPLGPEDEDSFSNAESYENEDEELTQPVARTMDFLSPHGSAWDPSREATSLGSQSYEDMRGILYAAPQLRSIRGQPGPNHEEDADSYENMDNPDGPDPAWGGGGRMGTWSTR
Method: (§1) Part of the antibodies in Example 1 were detected for surface binding to CD19-positive target cells SU-DHL-10 and Raji.
(§2) CD19-positive SU-DHL-10 or Raji cell lines were used, and humanized antibodies at different concentrations were used to bind the target cells. After binding, secondary antibodies (fluorescent labeled anti-Fc antibodies) were used for staining. After cleaning the residual antibodies, the positive rate was analyzed by flow cytometry to draw the binding curve of antibodies binding to cell surface antigens.

[2] = target: T2, CD19 on CD19-positive target cells …; assay: flow cytometry on CD19-positive SU-DHL-10 cells, antibody titrated, fluorescent anti-Fc secondary antibody, percent positive cells (panel 'scFv binding to SU-DHL-10')
Method: as §1, §2

B1: humanized CD19 antibody VH7 + VL6 (antibody, V domains shown)
VH: QVKLQESGPGLVKPSETLSLTCTVSGVSLPDYGVSWIRQPPGKGLEWLGVIWGSETTYYNSALKSRLTISKDTSKNQFSLKLSSVTAADTAVYYCAKHYYYGGSYAMDYWGQGTLVTVSS
VL: DIQMTQSPSSLSASVGDRVTITCRASQDISKYLNWYQQKPGGAVKLLIYHTSRLHSGVPSRFSGSGSGTDYTFTISSLQPEDIATYFCQQGNTLPYTFGGGTKLEIK
- Kd (human CD19 antigen): 4.57 nM
- koff (human CD19 antigen): 0.000592 s⁻¹
- kon (human CD19 antigen): 130000 M⁻¹ s⁻¹
- EC50 (read off the curve) [1]: ~0.03 µg/mL
- EC50 (read off the curve) [2]: ~0.01 µg/mL

B2: humanized CD19 antibody VH8 + VL6 (antibody, V domains shown)
VH: B1 VH with L48I, L67V, N76S, F78V, S79F
VL: B1 VL
- Kd (human CD19 antigen): 3.26 nM
- koff (human CD19 antigen): 0.000383 s⁻¹
- kon (human CD19 antigen): 117000 M⁻¹ s⁻¹
- EC50 (read off the curve) [1]: ~0.04 µg/mL
- EC50 (read off the curve) [2]: ~0.01 µg/mL

B3: humanized CD19 antibody VH8 + VL5 (antibody, V domains shown)
VH: B1 VH with L48I, L67V, N76S, F78V, S79F
VL: B1 VL with T22S, G42K, V44P
- Kd (human CD19 antigen): 3.87 nM
- koff (human CD19 antigen): 0.000602 s⁻¹
- kon (human CD19 antigen): 155000 M⁻¹ s⁻¹
- EC50 (read off the curve) [1]: ~0.03 µg/mL
- EC50 (read off the curve) [2]: ~0.01 µg/mL

Stronger by Kd (human CD19 antigen), values ahead:

- Kd (human CD19 antigen): 1.55 nM
- koff (human CD19 antigen): 0.000182 s⁻¹
- kon (human CD19 antigen): 118000 M⁻¹ s⁻¹
- EC50 (read off the curve) [1]: ~0.03 µg/mL
B4: humanized CD19 antibody VH10 + VL5 (antibody, V domains shown)
VH: B1 VH with N76S, F78V, S79F
VL: B1 VL with T22S, G42K, V44P

- Kd (human CD19 antigen): 1.7 nM
- koff (human CD19 antigen): 0.000186 s⁻¹
- kon (human CD19 antigen): 109000 M⁻¹ s⁻¹
B5: humanized CD19 antibody VH9 + VL5 (antibody, V domains shown)
VH: B1 VH with K3Q, N76S, F78V
VL: B1 VL with T22S, G42K, V44P
notes: also called H9L5
